This passage reports NAD-dependent deacetylase activity results from patent US20040091953.

The data set has as its system T1, peptide corresponding to the first 22 amino acids of histone 4, chemically acetylated in vitro.
T1 sequence: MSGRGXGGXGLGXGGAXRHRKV

Turning to hSIRT6, the NAD-dependent deacetylase activity result was “showed no detectable activity”.
